Test results taken from paper PMC4840321.

Columns and labels:
[1] = western blot, SGTA+Vpu-induced rise of 23-kDa species; conditions: glycan lost; control: wild type
[2] = western blot, 23-kDa tetherin level ± SGTA and Vpu; conditions: glycan changed form; control: untreated
[3] = cytosol/membrane fractionation ± SGTA and Vpu, anti-HA blot; conditions: glycan lost; control: wild type 23-kDa species

Protein	expression_or_secretion [1]	expression_or_secretion [2]	localisation_or_trafficking [3]
tetherin/BST-2/CD317/HM1.24: N65A (protein) parent chain: MASTSYDYCRVPMEDGDKRCKLLLGIGILVLLIIVILGVPLIIFTIKANSEACRDGLRAVMECRNVTHLLQQELTEAQKGFQDVEAQAATCNHTVMALMASLDAEKAQGQKKVEELEGEITTLNHKLQDASAEVERLRRENQVLSVRIADKKYYPSSQDSSSAAAPQLLIVLLGLSALLQ	no change		
tetherin/BST-2/CD317/HM1.24: kifunensine (protein) parent chain: MASTSYDYCRVPMEDGDKRCKLLLGIGILVLLIIVILGVPLIIFTIKANSEACRDGLRAVMECRNVTHLLQQELTEAQKGFQDVEAQAATCNHTVMALMASLDAEKAQGQKKVEELEGEITTLNHKLQDASAEVERLRRENQVLSVRIADKKYYPSSQDSSSAAAPQLLIVLLGLSALLQ		no change	
tetherin/BST-2/CD317/HM1.24: N92A (protein) parent chain: MASTSYDYCRVPMEDGDKRCKLLLGIGILVLLIIVILGVPLIIFTIKANSEACRDGLRAVMECRNVTHLLQQELTEAQKGFQDVEAQAATCNHTVMALMASLDAEKAQGQKKVEELEGEITTLNHKLQDASAEVERLRRENQVLSVRIADKKYYPSSQDSSSAAAPQLLIVLLGLSALLQ	no change		
tetherin/BST-2/CD317/HM1.24: NN-AA (protein) parent chain: MASTSYDYCRVPMEDGDKRCKLLLGIGILVLLIIVILGVPLIIFTIKANSEACRDGLRAVMECRNVTHLLQQELTEAQKGFQDVEAQAATCNHTVMALMASLDAEKAQGQKKVEELEGEITTLNHKLQDASAEVERLRRENQVLSVRIADKKYYPSSQDSSSAAAPQLLIVLLGLSALLQ	abolishes		no change
